These results are taken from PMC11538506.

This series has as its target DDX3X WT (MBP) (UniProt O00571 1-662). Briefly: time-resolved fluorescence anisotropy. For orientation: Polarisation of emitted light reports the rotation of a fluorescent probe.

Chain of DDX3X WT (MBP) (O00571 whole entry): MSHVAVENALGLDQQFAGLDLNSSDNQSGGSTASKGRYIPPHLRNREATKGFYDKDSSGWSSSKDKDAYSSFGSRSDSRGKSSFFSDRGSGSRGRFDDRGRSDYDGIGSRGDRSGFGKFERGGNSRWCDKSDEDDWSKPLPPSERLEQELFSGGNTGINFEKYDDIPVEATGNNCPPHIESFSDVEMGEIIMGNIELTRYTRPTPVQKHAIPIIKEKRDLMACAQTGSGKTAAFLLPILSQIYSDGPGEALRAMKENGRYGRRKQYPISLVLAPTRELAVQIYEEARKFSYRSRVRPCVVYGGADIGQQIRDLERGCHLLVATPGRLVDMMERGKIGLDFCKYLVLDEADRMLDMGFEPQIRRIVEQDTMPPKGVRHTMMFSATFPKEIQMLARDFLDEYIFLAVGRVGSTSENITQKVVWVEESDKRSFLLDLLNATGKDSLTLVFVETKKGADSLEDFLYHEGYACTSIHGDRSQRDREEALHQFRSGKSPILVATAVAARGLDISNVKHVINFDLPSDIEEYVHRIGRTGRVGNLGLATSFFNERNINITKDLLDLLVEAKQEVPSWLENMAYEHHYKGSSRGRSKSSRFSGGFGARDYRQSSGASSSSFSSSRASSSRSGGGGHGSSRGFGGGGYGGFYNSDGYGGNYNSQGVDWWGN

B1: dsRNA anisotropy probe (18/42-mer) (dsRNA)
RNA 1: ACCGCUGCCGUCGCUCCG
RNA 2: UUUUUUUUUUUUUUUUUUUUUUUUCGGAGCGACGGCAGCGGU
Take B1: the binding result is “binds”.
